# B1: FGF21: endocrine fibroblast growth factor 21, prior-art browning factor (Fisher et al. 2012) (protein, UniProt Q9NSA1 29-209, looked up)
# Fibroblast growth factor 21: HPIPDSSPLLQFGGQVRQRYLYTDDAQQTEAHLEIREDGTVGGAADQSPESLLQLKALKPGVIQILGVKTSRFLCQRPDGALYGSLHFDPEACSFRELLLEDGYNVYQSEAHGLPLHLPGNKSPHRDPAPRGPARFLPLPGLPPALPEPPGILAPQPPDVGSSDPLSMVGPSQGRSPSYAS
# B2: FGF8f: human recombinant FGF8 spliceform f (R&D Systems); SEQ ID NO:18 (protein)
# chain: MGSPRSALSCLLLHLLVLCLQAQEGPGRGPALGRELASLFRAGREPQGVSQQVTVQSSPNFTQHVREQSLVTDQLSRRLIRTYQLYSRTSGKHVQVLANKRINAMAEDGDPFAKLIVETDTFGSRVRVRGAETGLYICMNKKGKLIAKSNGKGKDCVFTEIVLENNYTALQNAKYEGWYMAFTRKGRPRKGSKTRQHQREVHFMKRLPRGHHTTEQSLRFEFLNYPPFTRSLRGSQRTWAPEPR
# modifications: human FGF8f
# B3: FGF8e: human recombinant FGF8 spliceform e (R&D Systems); SEQ ID NO:17 (protein)
# chain: MGSPRSALSCLLLHLLVLCLQAQEGPGRGPALGRELASLFRAGREPQGVSQQHVREQSLVTDQLSRRLIRTYQLYSRTSGKHVQVLANKRINAMAEDGDPFAKLIVETDTFGSRVRVRGAETGLYICMNKKGKLIAKSNGKGKDCVFTEIVLENNYTALQNAKYEGWYMAFTRKGRPRKGSKTRQHQREVHFMKRLPRGHHTTEQSLRFEFLNYPPFTRSLRGSQRTWAPEPR
# modifications: human FGF8e
# B4: FGF17: human recombinant fibroblast growth factor 17 (PeproTech), FGF8 subfamily; SEQ ID NO:23 (protein)
# chain: MGAARLLPNLTLCLQLLILCCQTQGENHPSPNFNQYVRDQGAMTDQLSRRQIREYQLYSRTSGKHVQVTGRRISATAEDGNKFAKLIVETDTFGSRVRIKGAESEKYICMNKRGKLIGKPSGKSKDCVFTEIVLENNYTAFQNARHEGWFMAFTRQGRPRQASRSRQNQREAHFIKRLYQGQLPFPNHAEKQKQFEFVGSAPTRRTKRTRRPQPLT
# modifications: human FGF17
# B5: FGF8a: human recombinant FGF8 spliceform a (R&D Systems); SEQ ID NO:15 (protein)
# chain: MGSPRSALSCLLLHLLVLCLQAQHVREQSLVTDQLSRRLIRTYQLYSRTSGKHVQVLANKRINAMAEDGDPFAKLIVETDTFGSRVRVRGAETGLYICMNKKGKLIAKSNGKGKDCVFTEIVLENNYTALQNAKYEGWYMAFTRKGRPRKGSKTRQHQREVHFMKRLPRGHHTTEQSLRFEFLNYPPFTRSLRGSQRTWAPEPR
# modifications: human FGF8a
# System: subcutaneous white adipose tissue
# Test: not given
# Conditions: cited from earlier work
row,Molecule,Appearance of brown-like adipocytes
1,B1,increases the appearance of brown-like adipocytes

# System: subcutaneous, inguinal white adipocytes
# Test: Ucp1 / brown adipocyte marker mRNA (qPCR) in immortalized inguinal white adipocytes treated with FGFs
# Assay type: cell-based, murine
# Conditions: inguinal adipocytes; six days of differentiation; FGF8a, b, e, f 25.0 ng/ml, FGF17 10.0 ng/ml
# Description: (§1) Screening paracrine FGFs for a browning potential. A, B—Screening of all paracrine FGFs in immortalized white adipocytes. Subcutaneous, inguinal and visceral, epididymal white adipocytes were grown to confluence in Dulbecco's modified Eagle's medium with 4.5 g/l glucose, supplemented with 20 nmol/l insulin, 1 nmol/l triiodothyronine, 20% fetal bovine serum, and penicillin/streptomycin. Upon reaching confluence, differentiation was induced with 500 mmol/l isobutylmethylxanthine, 250 mmol/l indomethacine, and 2 mg/ml dexamethasone for 24 hours. Subsequently, members of the paracrine FGF protein family were added to the medium for the following six days. The medium and the FGF indicated were changed every 48 hours. Untreated cells served as a negative control. At the end of the differentiation process total RNA was isolated using TRIzol reagents, RNA quality and concentration was measured by photometric analysis, and 5 μg of total RNA was reverse-transcribed to cDNA. Finally, quantitative analysis of UCP-1 mRNA expression was performed. A bar graph analysis including the SEM of 3 to 6 independent experiments is shown. […] B—Four different splicing forms of the Fgf8 gene were compared by quantifying Ucp1 mRNA expression in fully differentiated white adipocytes. UCP-1 mRNA abundance is shown in percent of the FGF8b value. Fgf8b and Fgf8f were able to increase expression in epididymal adipocytes. C—Illustration depicting the different exon usage that characterizes the FGF8 spliceforms a, b, e, and f.
# (§2) Dose dependency of Ffg8b action. A, B—Subcutaneous, inguinal and visceral, epididymal white adipocytes were grown to confluence in Dulbecco's modified Eagle's medium with 4.5 g/l glucose, supplemented with 20 nmol/l insulin, 1 nmol/l triiodothyronine, 20% fetal bovine serum, and penicillin/streptomycin. Upon reaching confluence, differentiation was induced with 500 mmol/l isobutylmethylxanthine, 250 mmol/l indomethacine, and 2 mg/ml dexamethasone for 24 hours. Subsequently, FGF8b in five indicated concentrations were added to the medium for the following six days. The medium and the FGF8b were changed every 48 hours. Untreated cells served as a negative control. At the end of the differentiation process total RNA was isolated using TRIzol reagents, RNA quality and concentration was measured by photometric analysis, and 5 μg of total RNA was reverse-transcribed to cDNA. Finally, quantitative analysis of UCP-1 mRNA expression was performed. FGF8b induces Ucp1 mRNA abundance in inguinal and epididymal adipocytes. Epididymal fat cells were more dose dependently responsive to Fgf8b treatment as compared to inguinal cells. The latter were responsive to FGF8b treatment above the threshold indicated. B—The absolute increase of several genes typical for brown fat cells.
# (§3) Treatment timecourse experiment. A, B—Subcutaneous, inguinal and visceral, epididymal white adipocytes were grown to confluence (prolif. denotes proliferation period) in Dulbecco's modified Eagle's medium with 4.5 g/l glucose, supplemented with 20 nmol/l insulin, 1 nmol/l triiodothyronine, 20% fetal bovine serum, and penicillin/streptomycin. Upon reaching confluence, differentiation was induced with 500 mmol/l isobutylmethylxanthine, 250 mmol/l indomethacine, and 2 mg/ml dexamethasone for 24 hours (induction). Subsequently, the cells were cultured for another six days (differentiation). At the end of the differentiation process total RNA was isolated using TRIzol reagents, RNA quality and concentration was measured by photometric analysis, and 5 μg of total RNA was reverse-transcribed to cDNA. Finally, quantitative analysis of UCP-1 mRNA expression was performed. Untreated cells served as a negative control. A bar graph analysis including the SEM of 5 independent experiments is shown. A—Epididymal fat cells were treated with FGF8b during different time windows as given by black squares indicating one day of treatment each. […]
row,Molecule,"Induction of Ucp1 mRNA expression (browning potential), screening of paracrine FGFs and FGF8 spliceforms"
1,B2,only effective in inducing Ucp1 expression in adipocytes of epididymal adipocytes
2,B3,did not induce Ucp1 mRNA expression
3,B4,strongly induce Ucp1 mRNA expression
4,B5,did not induce Ucp1 mRNA expression

# System: visceral, epididymal white adipocytes
# Test: Ucp1 / brown adipocyte marker mRNA (qPCR) in immortalized epididymal white adipocytes treated with FGFs
# Assay type: cell-based, murine
# Conditions: epididymal adipocytes; six days of differentiation; FGF8a, b, e, f 25.0 ng/ml, FGF17 10.0 ng/ml
# Description: as §1, §2, §3
row,Molecule,"Induction of Ucp1 mRNA expression (browning potential), screening of paracrine FGFs and FGF8 spliceforms"
1,B2,effective
2,B3,did not induce Ucp1 mRNA expression
3,B4,increased expression of Ucp1 mRNA expression
4,B5,did not induce Ucp1 mRNA expression

# Source: patent publication US10532083B2, “Methods for inducing differentiation or conversion of white adipocytes and/or preadipocytes to brown adipocites using FGF8” (Technische Universität München, priority 2014, dated 2020)
